B1: HelQ helicase, full length, human (enzyme, UniProt Q8TDG4 1-1101, looked up)
chain: MDECGSRIRRRVSLPKRNRPSLGCIFGAPTAAELVPGDEGKEEEEMVAENRRRKTAGVLPVEVQPLLLSDSPECLVLGGGDTNPDLLRHMPTDRGVGDQPNDSEVDMFGDYDSFTENSFIAQVDDLEQKYMQLPEHKKHATDFATENLCSESIKNKLSITTIGNLTELQTDKHTENQSGYEGVTIEPGADLLYDVPSSQAIYFENLQNSSNDLGDHSMKERDWKSSSHNTVNEELPHNCIEQPQQNDESSSKVRTSSDMNRRKSIKDHLKNAMTGNAKAQTPIFSRSKQLKDTLLSEEINVAKKTVESSSNDLGPFYSLPSKVRDLYAQFKGIEKLYEWQHTCLTLNSVQERKNLIYSLPTSGGKTLVAEILMLQELLCCRKDVLMILPYVAIVQEKISGLSSFGIELGFFVEEYAGSKGRFPPTKRREKKSLYIATIEKGHSLVNSLIETGRIDSLGLVVVDELHMIGEGSRGATLEMTLAKILYTSKTTQIIGMSATLNNVEDLQKFLQAEYYTSQFRPVELKEYLKINDTIYEVDSKAENGMTFSRLLNYKYSDTLKKMDPDHLVALVTEVIPNYSCLVFCPSKKNCENVAEMICKFLSKEYLKHKEKEKCEVIKNLKNIGNGNLCPVLKRTIPFGVAYHHSGLTSDERKLLEEAYSTGVLCLFTCTSTLAAGVNLPARRVILRAPYVAKEFLKRNQYKQMIGRAGRAGIDTIGESILILQEKDKQQVLELITKPLENCYSHLVQEFTKGIQTLFLSLIGLKIATNLDDIYHFMNGTFFGVQQKVLLKEKSLWEITVESLRYLTEKGLLQKDTIYKSEEEVQYNFHITKLGRASFKGTIDLAYCDILYRDLKKGLEGLVLESLLHLIYLTTPYDLVSQCNPDWMIYFRQFSQLSPAEQNVAAILGVSESFIGKKASGQAIGKKVDKNVVNRLYLSFVLYTLLKETNIWTVSEKFNMPRGYIQNLLTGTASFSSCVLHFCEELEEFWVYRALLVELTKKLTYCVKAELIPLMEVTGVLEGRAKQLYSAGYKSLMHLANANPEVLVRTIDHLSRRQAKQIVSSAKMLLHEKAEALQEEVEELLRLPSDFPGAVASSTDKA
notes: human HelQ DNA repair helicase, full length; Tetramer as apoenzyme and dimer with ATP-Mg2+ by SEC-MALS; also called HelQ apoenzyme; His-SUMO-SF-tagged HelQ; source: SF9 insect cells (Bac-to-Bac baculovirus), purified (ammonium sulphate, Ni-NTA, heparin, Q-sepharose); not shown: His6, N-terminal, kept; SUMO, N-terminal, kept; StrepII-Flag, N-terminal, kept
B2: C-HelQ, HelQ 'core' helicase (826 amino acids) (domain or fragment, human, UniProt Q8TDG4 275-1101, looked up)
chain: GNAKAQTPIFSRSKQLKDTLLSEEINVAKKTVESSSNDLGPFYSLPSKVRDLYAQFKGIEKLYEWQHTCLTLNSVQERKNLIYSLPTSGGKTLVAEILMLQELLCCRKDVLMILPYVAIVQEKISGLSSFGIELGFFVEEYAGSKGRFPPTKRREKKSLYIATIEKGHSLVNSLIETGRIDSLGLVVVDELHMIGEGSRGATLEMTLAKILYTSKTTQIIGMSATLNNVEDLQKFLQAEYYTSQFRPVELKEYLKINDTIYEVDSKAENGMTFSRLLNYKYSDTLKKMDPDHLVALVTEVIPNYSCLVFCPSKKNCENVAEMICKFLSKEYLKHKEKEKCEVIKNLKNIGNGNLCPVLKRTIPFGVAYHHSGLTSDERKLLEEAYSTGVLCLFTCTSTLAAGVNLPARRVILRAPYVAKEFLKRNQYKQMIGRAGRAGIDTIGESILILQEKDKQQVLELITKPLENCYSHLVQEFTKGIQTLFLSLIGLKIATNLDDIYHFMNGTFFGVQQKVLLKEKSLWEITVESLRYLTEKGLLQKDTIYKSEEEVQYNFHITKLGRASFKGTIDLAYCDILYRDLKKGLEGLVLESLLHLIYLTTPYDLVSQCNPDWMIYFRQFSQLSPAEQNVAAILGVSESFIGKKASGQAIGKKVDKNVVNRLYLSFVLYTLLKETNIWTVSEKFNMPRGYIQNLLTGTASFSSCVLHFCEELEEFWVYRALLVELTKKLTYCVKAELIPLMEVTGVLEGRAKQLYSAGYKSLMHLANANPEVLVRTIDHLSRRQAKQIVSSAKMLLHEKAEALQEEVEELLRLPSDFPGAVASSTDKA
notes: human HelQ helicase core: the 826 amino acids that match Hel308; excludes the 274 amino acid N-terminal region; 85 kDa; The start at 275 follows from the excluded 274 residue N-terminal region; also called core HelQ helicase; source: Escherichia coli, purified (as described for HelQ)

Tests used:
[1] = biological target: the molecule itself; test: SEC-MALS; HelQ with ATP-Mg2+: pre-incubated in 5 mM MgCl2 and 5 mM ATP at 37°C for 10 min, running buffer with 0.2 mM ATP and 0.2 mM MgCl2, Superdex-200
[2] = biological target: the molecule itself; test: SEC-MALS; HelQ apoenzyme, 200 ul of 2.4 uM monomer, Superdex-200, 50 mM Tris-HCl pH 8.0, 150 mM NaCl, 10% glycerol, pre-incubated 10 min at 37°C; no ATP-Mg2+
[3] = biological target: the molecule itself; test: SEC; analytical gel filtration of C-HelQ in ATP-Mg2+ and ssDNA, Superdex-200, against mass standards

| Protein | stoichiometry N [1] | stoichiometry N [2] | stoichiometry N [3] |
| --- | --- | --- | --- |
| B1 | 2 | 4 | – |
| B2 | – | – | 2 |
